According to publication PMC10665668:

Legend:
[1] = target: class II sulfofructose-1-phosphate (SFP) aldolase from Yersinia aldovae (Yersinia aldovae); experiment: SEC-MALS
[2] = target: class II sulfofructose-1-phosphate (SFP) aldolase from Hafnia paralvei (Hafnia paralvei); experiment: SEC-MALS

Substance	stoichiometry N [1]	stoichiometry N [2]
class II sulfofructose-1-phosphate (SFP) aldolase from Yersinia aldovae (enzyme)	4	–
class II sulfofructose-1-phosphate (SFP) aldolase from Hafnia paralvei (enzyme)	–	4
